Assay results reported in patent publication US20230220062A1 (Eli Lilly, published 2023).
Residue numbers refer to the chain shown, from its start.

B1: rabbit derived IL-19 Ab 1 (R_1) (antibody, V domains shown)
VH: QQLEESGGGLVQPEGSLTLTCTASGFSFSSSYWICWVRQAPGKGLEWLACIDTGVSGDTYYANWAEGRFTISKTSSTTVTLQMTSLTAADTATYFCARDIFGSAIDNSLWGPGTLVTVSS
VL: AIDMTQTPASVSEPVGGTVTIKCQASQSISSYLAWYQQKPGQPPKLLIYSASTLASGVPSRFRGSGSGREFTLTISDLECADAATYYCQCHYHGSSYWDNSFGGGTEVVVK
B2: rabbit derived IL-19 Ab 2 (R_2) (antibody, V domains shown)
VH: B1 VH with E66K
VL: DVVMTQTPASVEAAVGGTVTIKCQASESIGNALAWYQQKPGQPPKLLIYDASKLASGVPSRFKGSGSGTQFTLTISDLECADAATYYCQCHYHGSSYWDNSFGGGTEVVVK
B3: rabbit derived IL-19 Ab 39 (R_39) (antibody, V domains shown)
VH: QEQLKESGGGLVQPGGSLKLSCKASGFDLSSYGVSWVRQAPGKGLEWIGYIDPVFGSTYYANWVNGRFTISSDNAQNTLYLQLNSLTAADTATYFCARGSGYVYYGYTYDLWGPGTLVTVSS
VL: DIVMTQTPASVEAAVGGTVTIKCQASQSIYRYLSWYQQKPGQRPKLLIYGASNLASGVSSRFKGSGSGTEFTLTISDLECADAATYYCQSYYYSSSSGYGNVFGGGTEVVVKG
B4: murine derived IL-19 Ab 3 (M_3) (antibody, mouse IgG1, kappa, V domains shown)
VH: QIQLVQSGPELKKPGETVKISCKASGYTFTTYGMSWVKQAPGKGLKWMVWINTYSGVPTYVDDFKGRFAFSLETSASTAYLQINNLKNEDTATYFCARRDEGFAYWGQGTLVTVSA
VL: DIKMTQSPSSMYASLGERVTITCKASQDINSYLSWFQQKPGKSPKTLIYRANRLVDGVPSRFSGSGSGQDYSLTISSLEYEDMGIYFCLQYDDFPYTFGGGTKLEIKR
B5: rabbit derived IL-19 antibody R_3 (antibody, V domains shown)
VH: CQSLEESGGGLVEPEGSLTLTCKASGFSFSSSYWICWVRQAPGKGLEWIACTDTFSGDTYYASWAKGRFTISKTSSTTVTLRMTSLTDADTATYFCARDIFGTAVHISLWGPGTLVTVSS
VL: B2 VL with A9S, E27Q, N31S, A32S, P43R, D50G, K53T, Q70E
B6: rabbit derived IL-19 antibody R_4 (antibody, V domains shown)
VH: CQSVEESGGRLVTPGTPLTLTCTVSGIDLSIYAMGWVRQAPGKGLEYIGIIDTTGTAYYARWAKGRFTISKTSATVALKITSPTTEDTATYFCARDSGSLYYGSYALWGPGTLVTVSS
VL: DVVMTQTPSSVSEPVGGTVTIKCQASQSIYSYLSWYQQKPGQPPKLLIYEASKLASGVPSRFKGSGSGTQFTLTISGVECADAATYYCQQGYSSSNVDNTFGGGTEVVVT
B7: murine derived IL-19 Ab 2 (M_2) (antibody, mouse IgG1, kappa, V domains shown)
VH: LVQLQQSDAELVKPGASLKISCKVSGYTFTDHALHWMKQRPEQGLEWIGYIYPRDGSTKYNEKFKGKATLTADRSSSTAYMELNSLTSEDSAVYFCARGWDFAMDYWGQGTSVTVSS
VL: DIVLTQSPESLAVSLGQRATISCRASESVDNYGISFIHWYQQKPGQPPKLLIYRASNLKSGIPARFSGRGSRTDFTLTINPVETDDVATYYCQQINKDPLTFGAGTKLELKR
B8: murine derived IL-19 Ab 1 (M_1) (antibody, mouse IgG1, kappa, V domains shown)
VH: EVQLQQSGPVLVKPGASVKMSCKASGYKFTDYFVGWVKQSHGKSLEWIGYVDPENGYTRCNQKFKGKATLTVDKSSSTAYMELNSLTSEDSAVYYCARYDYDWAWFTNWGQGTLVTVSA
VL: DIVMTQSPSSLAMSVGQKVTMSCKSSQSLLSSYNQKNYLAWYQQKPGQSPKLLVYFASTRPPGVPDRFIGSGSGSDFTLTISSVQAEDLADYFCQQHERLPITFGAGTKLELKR
B9: murine derived IL-19 Ab 5 (M_5) (antibody, mouse IgG1, kappa, V domains shown)
VH: EVQLQQSGPVLVKPGASVKMSCKASGYPFNDYFLGWVKQSHGKSLEWIGSINPDNDYTMSNQKFKGKATLTVDKSSSTAYMELNSLTSEDSAVYYCARYDYDWAWFAHWGQGTLVTVSA
VL: B8 VL with Q44R, T59Q, P61A, P62T, E98T

Columns and labels:
recombinant human IL-19 [1] = molecular target: T1, recombinant human IL-19 (human, UniProt Q9UHD0 25-177); assay: BLI (Octet Red96), antibody on AMQ biosensor, IL-19 in solution, 25 C, 1:1 fit
T1 construct: also called human IL-19 recombinant protein; interleukin-19
T1 sequence: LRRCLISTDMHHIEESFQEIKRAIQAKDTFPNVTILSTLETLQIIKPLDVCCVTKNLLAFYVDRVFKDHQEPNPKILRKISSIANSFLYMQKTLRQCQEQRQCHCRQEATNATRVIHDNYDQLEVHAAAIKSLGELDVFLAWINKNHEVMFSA
Procedure: Except as noted, all reagents and materials are from ForteBio (Freemont, Calif.). An AMQ biosensor is used to immobilize antibody of interest for analysis.
Binding data is processed using standard double-referencing and fit to a 1:1 binding model using Data Analysis v9.0 evaluation software, to determine the association rate (kₒₙ, M⁻¹ s⁻¹ units), dissociation rate (koff, s⁻¹ units), and Rₘₐₓ (nm units). The equilibrium dissociation constant (KD) was calculated from the relationship KD=koff/kₒₙ, and is in molar units.

recombinant human IL-19 [2] = molecular target: T1, recombinant human IL-19; assay: BLI; immobilized antibody loaded with 100 nM human IL-19, then competitor human IL-20R beta Fc-fusion added; the response is that of the receptor-Fc step
Text: Binding between a ligand immobilized on the biosensor tip surface and an analyte in solution produces an increase in optical thickness at the biosensor tip, which results in a wavelength shift (expressed in nm).

Binder	Kd (recombinant human IL-19 [1]) [nM]	koff (recombinant human IL-19 [1]) [s⁻¹]	kon (recombinant human IL-19 [1]) [M⁻¹ s⁻¹]	IL-20R beta Fc protein binding response (nm) (recombinant human IL-19 [2])
B1	0.311	1.04e-05	33300	
B2	0.103	4.42e-05	428000	
B3	170	0.0348	206000	-0.0421
B4				0.354
B5	< 0.001	< 1e-07	391000	
B6	8.52	0.0013	152000	
B7	2.9	0.000185	63700	0.361
B8	0.0576	6.32e-05	1.1e+06	-0.0075
B9	0.0521	3.58e-05	688000	-0.0124
